Reference: patent US20090220501A1 (published 2009)

Target: T1, human CD19 (human, UniProt P15391 20-556)
T1 construct: whole, on cells; also called CD19 B-cell antigen
T1 sequence (looked up): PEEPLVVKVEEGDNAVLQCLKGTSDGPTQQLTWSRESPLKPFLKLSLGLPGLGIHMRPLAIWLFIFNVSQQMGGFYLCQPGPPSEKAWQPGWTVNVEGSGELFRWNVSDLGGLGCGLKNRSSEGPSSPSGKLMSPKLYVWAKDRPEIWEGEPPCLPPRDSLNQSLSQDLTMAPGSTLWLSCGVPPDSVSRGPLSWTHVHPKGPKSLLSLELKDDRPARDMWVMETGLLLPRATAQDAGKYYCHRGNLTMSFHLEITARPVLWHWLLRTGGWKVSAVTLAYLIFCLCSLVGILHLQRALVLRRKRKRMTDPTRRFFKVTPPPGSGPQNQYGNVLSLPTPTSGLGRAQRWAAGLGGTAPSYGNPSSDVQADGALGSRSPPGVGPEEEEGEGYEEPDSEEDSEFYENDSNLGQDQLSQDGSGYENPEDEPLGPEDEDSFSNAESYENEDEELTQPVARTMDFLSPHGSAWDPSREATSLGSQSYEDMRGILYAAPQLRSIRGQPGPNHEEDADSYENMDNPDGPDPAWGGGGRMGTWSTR
Assay: flow cytometry on CD19-positive cells with varying antibody concentrations and a fluorescently labeled secondary antibody (Benedict method); mean of 6 experiments

B1: humanized (chimeric) anti-CD19 IgG1 antibody of the disclosure, 4G7chim (antibody, V domains shown)
VH: QVQLQQSGPELIKPGASVKMSCKASGYTFTSYVMHWVKQKPGQGLEWIGYINPYNDGTKYNEKFKGKATLTSDKSSSTAYMELSSLTSEDSAVYYCARGTYYYGSRVFDYWGQGTTLTVTV
VL: DIVMTQAAPSIPVTPGESVSISCRSSKSLLNSNGNTYLYWFLQRPGQSPQLLIYRMSNLASGVPDRFSGSGSGTAFTLRISRVEAEDVGVYYCMQHLEYPLTFGAGTKLEIRR
notes: also called anti-CD19 antibody of the present disclosure; CD19 chimeric antibody
Kd: ~5.5 nM
